The source of these data is the supplement of paper PMC10567573.

B1: FAM46D (parent)
chain: FQEAMTHLQHKLICTRKPEEIRGG
B2: LCOR (parent)
chain: YKVKERLGTLKNPPKKKMKLMSG
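Also: lentivirally expressed fusions sorted by FACS into six bins by GFP to DsRed ratio, PSI derived from sequencing read proportions per bin multiplied by bin number.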

In one data set the parent is B1. In words: protein stability index of a GFP-peptide fusion (GPS, HEK-293T) (PSI 1-6); higher = more stable. The note with it: c terminus: a fixed tail appended.
For the variant FQEAMDHLQHKLICTRKPEEIRGG [T6D], the protein stability index stood at 3.41. As to FQEAMAHLQHKLICTRKPEEIRGG [T6A], the protein stability index stood at 2. Same read-out and setting: the value for FQEAITHLQHKLICTRKPEEIRGG [M5I] was 2.22. Still for that read-out and setting: the value for FQEAVTHLQHKLICTRKPEEIRGG [M5V] was 2.97; that for FQEAHTHLQHKLICTRKPEEIRGG [M5H] was 3.79; that for FQEAWTHLQHKLICTRKPEEIRGG [M5W] was 2.1. Regarding FQEAMTVLQHKLICTRKPEEIRGG [H7V], the protein stability index stood at 2.48. As for FQEAMTWLQHKLICTRKPEEIRGG [H7W], the protein stability index was 1.95.

With FQEAMTSLQHKLICTRKPEEIRGG [H7S], the protein stability index stood at 3.3. The same measure, in the same setting: the result for FQEAMTMLQHKLICTRKPEEIRGG [H7M] reads 1.11; that for FQEAMTTLQHKLICTRKPEEIRGG [H7T], 2.77; that for FQEAMTDLQHKLICTRKPEEIRGG [H7D], 3.54.

For FQEAMTHLQHKLIKTRKPEEIRGG [C14K], the protein stability index is 2.6. As for FQEAMTHLQHKLIMTRKPEEIRGG [C14M], the protein stability index came to 2.38. As to FQEAMTHLQHKLILTRKPEEIRGG [C14L], the protein stability index is 2.55.

In the case of FQEAMTHLQHKLIFTRKPEEIRGG [C14F], the protein stability index was found to be 2.58. Consider FQEAMTHLQHKLIWTRKPEEIRGG [C14W], for which the protein stability index turned out to be 1.68.

Another data set covers variants of B2. The description is as above. The following applies: c terminus: native.
Turning to YKVKERLGTLKNPPKKKYKLMSG [M18Y], the protein stability index came out at 2.43. Consider YKVKERLGTLKNPPKKKMKLMTG [S22T], for which the protein stability index came out at 2.42. Turning to YKVKERLGTLKNPPKKKMKLMIG [S22I], the protein stability index was found to be 2.45. Turning to YKVKERLGTLKNPPKKKMKLMNG [S22N], the protein stability index is 2.11. Regarding YKVKERLGTLKNPPKKKMKLMCG [S22C], the protein stability index was found to be 2.14. With YKVKERLGTLKNPPKKKMKLMLG [S22L], the protein stability index stood at 2.19.

In the case of YKVKERLGTLKNPPKKKMKLMMG [S22M], the protein stability index was determined as 1.61. Turning to YKVKERLGTLKNPPKKKMKLMEG [S22E], the protein stability index was 2.58. For YKVKERLGTLKNPPKKKMKLMYG [S22Y], the protein stability index turned out to be 2.65. As to YKVKERLGTLKNPPKKKMKLMFG [S22F], the protein stability index was 2.44.

As to YKVKERLGTLKNPPKKKMKLMDG [S22D], the protein stability index stood at 3.1. YKVKERLGTLKNPPKKKMKLMAG [S22A]: the protein stability index was 2.85. With YKVKERLGTLKNPPKKKMKLMHG [S22H], the protein stability index stood at 2.95. YKVKERLGTLKNPPKKKMKLMVG [S22V]: the protein stability index turned out to be 2.09. On the same count and under the same terms, the result for YKVKERLGTLKNPPKKKMKLMPG [S22P] reads 2.45; that for YKVKERLGTLKNPPKKKMKLMKG [S22K], 3.02; that for YKVKERLGTLKNPPKKKMKLMSF [G23F], 2.15. Turning to YKVKERLGTLKNPPKKKMKLMSE [G23E], the protein stability index was determined as 3.19. Turning to YKVKERLGTLKNPPKKKMKLMSY [G23Y], the protein stability index came to 2.57.

Regarding YKVKERLGTLKNPPKKKMKLMSC [G23C], the protein stability index is 2.57. As to YKVKERLGTLKNPPKKKMKLMSS [G23S], the protein stability index worked out at 3.

On to YKVKERLGTLKNPPKKKMKLMSL [G23L], for which the protein stability index turned out to be 2.75.

Regarding YKVKERLGTLKNPPKKKMKLMSP [G23P], the protein stability index worked out at 3.18. As to YKVKERLGTLKNPPKKKMKLMST [G23T], the protein stability index was determined as 3. For YKVKERLGTLKNPPKKKMKLMSQ [G23Q], the protein stability index turned out to be 2.78.

Turning to YKVKERLGTLKNPPKKKMKLMSN [G23N], the protein stability index is 2.43. Turning to YKVKERLGTLKNPPKKKMKLMSV [G23V], the protein stability index was 2.11. On the same count and under the same terms, the result for YKVKERLGTLKNPPKKKMKLMSM [G23M] reads 3.85; that for YKVKERLGTLKNPPKKKMKLMSI [G23I], 2.4; that for YKVKERLGTLKNPPKKKMKLMSD [G23D], 4.01. For YKVKERLGTLKNPPKKKMKLMSA [G23A], the protein stability index was determined as 2.29.

For the variant YKVKERLGTLKNPPKKKMKLMSR [G23R], the protein stability index was 2.88. For the variant YKVKERLGTLKNPPKKKMKLMSK [G23K], the protein stability index was 3.41.

Take YKVKERLGTLKNPPKKKMKLMSH [G23H]: the protein stability index is 3.01. For the variant YKVKERLGTLKNPPKKKMKLMSW [G23W], the protein stability index came to 2.19. With YKVKERLGTLKNPPKKKMKLTSG [M21T], the protein stability index was 1.76. Still for that read-out and setting: the value for YKVKERLGTLKNPPKKKMKLFSG [M21F] was 2.78; that for YKVKERLGTLKNPPKKKMKLHSG [M21H] was 3.33. Consider YKVKERLGTLKNPPKKKMKLYSG [M21Y], for which the protein stability index came to 2.34. Regarding YKVKERLGTLKNPPKKKMKLPSG [M21P], the protein stability index is 2.56. With YKVKERLGTLKNPPKKKMKLISG [M21I], the protein stability index amounted to 1.92. With YKVKERLGTLKNPPKKKMKLGSG [M21G], the protein stability index was 2.91. The same measure, in the same setting: the result for YKVKERLGTLKNPPKKKMKLNSG [M21N] reads 5.95; that for YKVKERLGTLKNPPKKKMKLLSG [M21L], 3.01. As for YKVKERLGTLKNPPKKKMKLWSG [M21W], the protein stability index turned out to be 2.82. YKVKERLGTLKNPPKKKMKLSSG [M21S]: the protein stability index was 1.45.

In the case of YKVKERLGTLKNPPKKKMKLCSG [M21C], the protein stability index turned out to be 4.02. The same measure, in the same setting: the result for YKVKERLGTLKNPPKKKMKSMSG [L20S] reads 3.02. With YKVKERLGTLKNPPKKKMKPMSG [L20P], the protein stability index turned out to be 3.94. In the case of YKVKERLGTLKNPPKKKMKQMSG [L20Q], the protein stability index amounted to 3.83. Still for that read-out and setting: the value for YKVKERLGTLKNPPKKKMKWMSG [L20W] was 2.95; that for YKVKERLGTLKNPPKKKMKNMSG [L20N] was 2.43; that for YKVKERLGTLKNPPKKKMKMMSG [L20M] was 1.55.

With YKVKERLGTLKNPPKKKMKGMSG [L20G], the protein stability index turned out to be 3.74. In the case of YKVKERLGTLKNPPKKKMKFMSG [L20F], the protein stability index was 2.55. Consider YKVKERLGTLKNPPKKKMKTMSG [L20T], for which the protein stability index stood at 2.32. For YKVKERLGTLKNPPKKKMKCMSG [L20C], the protein stability index was 1.8. YKVKERLGTLKNPPKKKMKHMSG [L20H]: the protein stability index was 3.95.

Take YKVKERLGTLKNPPKKKMKYMSG [L20Y]: the protein stability index was found to be 2.18.

Take YKVKERLGTLKNPPKKKMKIMSG [L20I]: the protein stability index amounted to 2.9.

As for YKVKERLGTLKNPPKKKMKKMSG [L20K], the protein stability index was 3.8.

As to YKVKERLGTLKNPPKKKMKDMSG [L20D], the protein stability index worked out at 3.66. On to YKVKERLGTLKNPPKKKMKEMSG [L20E], for which the protein stability index turned out to be 3.99. Regarding YKVKERLGTLKNPPKKKMKVMSG [L20V], the protein stability index worked out at 2.81.

With YKVKERLGTLKNPPKKKMKAMSG [L20A], the protein stability index amounted to 3.14. With YKVKERLGTLKNPPKKKMWLMSG [K19W], the protein stability index came out at 2.52.

Regarding YKVKERLGTLKNPPKKKMTLMSG [K19T], the protein stability index amounted to 2.38.

For the variant YKVKERLGTLKNPPKKKMHLMSG [K19H], the protein stability index stood at 2.51. On to YKVKERLGTLKNPPKKKMILMSG [K19I], for which the protein stability index turned out to be 3.48. Regarding YKVKERLGTLKNPPKKKMCLMSG [K19C], the protein stability index amounted to 2.15. Take YKVKERLGTLKNPPKKKMVLMSG [K19V]: the protein stability index is 2.77. For YKVKERLGTLKNPPKKKMELMSG [K19E], the protein stability index was 2.5. As to YKVKERLGTLKNPPKKKMQLMSG [K19Q], the protein stability index was determined as 3.03.

For YKVKERLGTLKNPPKKKMPLMSG [K19P], the protein stability index came to 2.26.

For the variant YKVKERLGTLKNPPKKKMALMSG [K19A], the protein stability index is 3.4.

Turning to YKVKERLGTLKNPPKKKMDLMSG [K19D], the protein stability index was 2.64. Take YKVKERLGTLKNPPKKKMNLMSG [K19N]: the protein stability index came to 2.96. For YKVKERLGTLKNPPKKKMGLMSG [K19G], the protein stability index came to 1.34.
